Data on 19 molecules can be found in patent publication US20060246046A1 (published 2006).

Changes are numbered by the printed parent chain. Names may count otherwise.

The labels stand for the following.
T1: factor XIIIa (human, UniProt P00488 39-732)
T1 sequence (looked up): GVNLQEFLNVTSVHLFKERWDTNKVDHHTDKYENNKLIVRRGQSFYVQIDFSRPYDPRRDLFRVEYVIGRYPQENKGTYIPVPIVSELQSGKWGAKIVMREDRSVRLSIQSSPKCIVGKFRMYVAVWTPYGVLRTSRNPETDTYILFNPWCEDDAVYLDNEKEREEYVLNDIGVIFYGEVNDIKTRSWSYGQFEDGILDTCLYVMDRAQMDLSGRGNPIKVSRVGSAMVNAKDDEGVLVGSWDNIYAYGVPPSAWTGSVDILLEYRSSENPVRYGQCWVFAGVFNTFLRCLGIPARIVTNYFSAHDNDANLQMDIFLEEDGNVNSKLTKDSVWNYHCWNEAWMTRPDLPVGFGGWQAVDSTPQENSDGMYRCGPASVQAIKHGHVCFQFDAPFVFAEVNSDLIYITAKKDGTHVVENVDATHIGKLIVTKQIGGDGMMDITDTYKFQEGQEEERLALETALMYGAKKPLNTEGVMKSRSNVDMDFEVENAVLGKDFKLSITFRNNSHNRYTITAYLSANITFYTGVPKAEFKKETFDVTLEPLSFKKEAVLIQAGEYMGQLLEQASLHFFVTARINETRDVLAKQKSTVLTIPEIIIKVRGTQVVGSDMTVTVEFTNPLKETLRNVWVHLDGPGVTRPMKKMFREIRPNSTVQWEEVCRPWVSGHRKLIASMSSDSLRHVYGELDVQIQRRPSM

B1: modified tridegin N60A (protein, not shown: small tags and cut ends)
chain: MKLLPCKEWHQGIPNPRCWCGADLECAQDQYCAFIPQCRPRSELIKPMDDIYQRPVEFPALPLKPREE
B2: modified tridegin L24A (protein, not shown: small tags and cut ends)
chain: B1 chain with L24A, A60N
B3: modified tridegin Cys variant C26A; +C38A (protein, not shown: small tags and cut ends)
chain: B1 chain with C26A, C38A, A60N
B4: modified tridegin K07A (protein, not shown: small tags and cut ends)
chain: B1 chain with K7A, A60N
B5: modified tridegin H10A (protein, not shown: small tags and cut ends)
chain: B1 chain with H10A, A60N
B6: modified tridegin K02A (protein, not shown: small tags and cut ends)
chain: B1 chain with K2A, A60N
B7: modified tridegin Cys variant C06A (protein, not shown: small tags and cut ends)
chain: B1 chain with C6A, A60N
B8: modified tridegin Y31A (protein, not shown: small tags and cut ends)
chain: B1 chain with Y31A, A60N
B9: modified tridegin Cys variant C32A (protein, not shown: small tags and cut ends)
chain: B1 chain with C32A, A60N
B10: modified tridegin G12A (protein, not shown: small tags and cut ends)
chain: B1 chain with G12A, A60N
B11: modified tridegin Cys variant C20A (protein, not shown: small tags and cut ends)
chain: B1 chain with C20A, A60N
B12: modified tridegin Cys variant C26A (protein, not shown: small tags and cut ends)
chain: B1 chain with C26A, A60N
B13: modified tridegin Cys variant C18A (protein, not shown: small tags and cut ends)
chain: B1 chain with C18A, A60N
B14: modified tridegin P65A (protein, not shown: small tags and cut ends)
chain: B1 chain with A60N, P65A

The target in the first assay is T1, factor XIIIa. As to the kind of experiment: cell-based or functional assay.
Regarding B1, the Relative inhibitory effect (%) at 5.45 µM, wild type = 100% was determined as 68%.
For the molecule B2, the Relative inhibitory effect (%) at 5.45 µM, wild type = 100% came out at 92%.
Same read-out and setting: with B3 the figure was 80%; with B4, 90%.
B5: the Relative inhibitory effect (%) at 5.45 µM, wild type = 100% is 87%.
Take B6: the Relative inhibitory effect (%) at 5.45 µM, wild type = 100% stood at 113%.
As for B7, the Relative inhibitory effect (%) at 5.45 µM, wild type = 100% worked out at 72%.
Regarding B8, the Relative inhibitory effect (%) at 5.45 µM, wild type = 100% was found to be 69%.
On the same count and under the same terms, with B9 the figure was 86%; with B10, 97%.
Take B11: the Relative inhibitory effect (%) at 5.45 µM, wild type = 100% was 63%.
On the same count and under the same terms, under B12 stands 82%; under B13, 93%.
For B14, the Relative inhibitory effect (%) at 5.45 µM, wild type = 100% stood at 51%.

The next assay deals with T1, factor XIIIa. As to the kind of experiment: cell-based or functional assay. The source holds these as a separate data set.
Turning to Ac-DDIYQRPVEFPNLPLKPREE-NH2 [20 amino acid-long tridegin peptide SEQ ID NO.26], the “IC50, Berichrom assay, HPLC-purified peptide” value came out at 5 µM.
On the same count and under the same terms, under Ac-IKPMDDIYQRPVEFPNLPLK-NH2 [20 amino acid-long tridegin peptide SEQ ID NO.24] stands 7 µM.
On to DDIYQRPVEFPNLP [DDIYQRPVEFPNLP (SEQ ID No. 88) (14mer)], for which the “IC50, Berichrom test, purified peptide” value was about 280 µM.
On to MDDIYQRPVEFPNLPL [MDDIYQRPVEFPNLPL (SEQ ID No. 87) (16mer)], for which the “IC50, Berichrom test, purified peptide” value stood at 19 µM.
Ac-PMDDIYQRPVEFPNLPLKPR-NH2 [20 amino acid-long tridegin peptide SEQ ID NO.25]: the “IC50, Berichrom assay, HPLC-purified peptide” value stood at 4 µM.

In a further assay the target is T1, factor XIIIa. Description: cell-based or functional assay. The source holds these as a separate data set.
For Ac-DDIYQRPVEFPNLPLKPREE-NH2 [20 amino acid-long tridegin peptide SEQ ID NO.26], the “Relative inhibitory effect (%) at 7.27 µM, recombinant tridegin = 100%” value came out at 35.6%.
Ac-IKPMDDIYQRPVEFPNLPLK-NH2 [20 amino acid-long tridegin peptide SEQ ID NO.24]: the “Relative inhibitory effect (%) at 7.27 µM, recombinant tridegin = 100%” value came out at 43.5%.
Ac-PMDDIYQRPVEFPNLPLKPR-NH2 [20 amino acid-long tridegin peptide SEQ ID NO.25]: the “Relative inhibitory effect (%) at 7.27 µM, recombinant tridegin = 100%” value stood at 42.1%.
